Patent publication US20200283502A1 (PEPTICOM LTD., priority 2017, published 2020)
Where a SMILES comes first, the peptide text is derived from it. Where no end group is shown, it is not given here. [ ]: non-standard residue; d: D form. His(π-Me) = Cn1cncc1C[C@H](N)C(=O)O; NMeT = CN[C@H](C(=O)O)[C@@H](C)O; Cha = N[C@@H](CC1CCCCC1)C(=O)O

Target: T1, human GABA receptor (subunits α1β3γ2) (Homo sapiens, UniProt P14867+P28472)
T1 construct: expressed in transfected cells; host or cells: HEK293
Assay: manual whole-cell patch-clamp of GABA receptor-mediated Cl− current in HEK293 cells
Format: cell-based
Settings: for Activity: human α1β3γ2 GABAA receptor, electrophysiological recordings; for potentiation of human GABA receptor-mediated Cl− current: receptor expressed in HEK293 cells, manual whole-cell patch-clamp
Description: All the compounds of the present invention were tested and validated using electrophysiological recordings on the human GABAA receptor comprising of the following subunits α1β3γ2.
The peptides of the present invention are capable of activating, inhibiting or modulating the GABAA receptor. These peptides were derived in-silico and tested in-vitro in cell cultures. […] The human GABA receptor (subunits α1β3γ2) used in these experiments was expressed in HEK293 cells in manual whole-cell patch-clamp settings.

T1 sequence (P14867 28-456): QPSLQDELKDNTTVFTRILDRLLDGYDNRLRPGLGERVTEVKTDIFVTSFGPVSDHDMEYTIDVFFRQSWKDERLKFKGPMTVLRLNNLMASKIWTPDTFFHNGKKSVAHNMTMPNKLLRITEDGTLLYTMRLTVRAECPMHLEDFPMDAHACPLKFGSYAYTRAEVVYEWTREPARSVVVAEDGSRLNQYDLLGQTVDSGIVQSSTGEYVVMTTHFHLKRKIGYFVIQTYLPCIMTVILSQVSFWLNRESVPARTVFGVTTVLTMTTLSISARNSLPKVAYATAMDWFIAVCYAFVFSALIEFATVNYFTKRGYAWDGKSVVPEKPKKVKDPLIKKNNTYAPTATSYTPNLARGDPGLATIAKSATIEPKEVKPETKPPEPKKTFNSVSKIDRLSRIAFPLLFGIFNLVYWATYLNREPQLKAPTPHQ
T1 sequence (P28472 26-473): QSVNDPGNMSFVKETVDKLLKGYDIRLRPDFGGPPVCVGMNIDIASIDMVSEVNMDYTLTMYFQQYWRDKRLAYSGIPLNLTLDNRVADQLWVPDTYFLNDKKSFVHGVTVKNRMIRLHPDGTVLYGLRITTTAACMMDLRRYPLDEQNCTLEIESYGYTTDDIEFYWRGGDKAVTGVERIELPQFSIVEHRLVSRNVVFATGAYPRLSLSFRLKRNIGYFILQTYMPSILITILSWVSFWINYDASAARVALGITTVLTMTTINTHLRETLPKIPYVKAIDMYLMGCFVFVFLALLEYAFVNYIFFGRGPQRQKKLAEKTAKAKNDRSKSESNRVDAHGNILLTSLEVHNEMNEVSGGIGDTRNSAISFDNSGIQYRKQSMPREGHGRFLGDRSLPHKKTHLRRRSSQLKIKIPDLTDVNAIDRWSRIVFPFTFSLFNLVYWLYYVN
T1 sequence (P18507 40-475 partner): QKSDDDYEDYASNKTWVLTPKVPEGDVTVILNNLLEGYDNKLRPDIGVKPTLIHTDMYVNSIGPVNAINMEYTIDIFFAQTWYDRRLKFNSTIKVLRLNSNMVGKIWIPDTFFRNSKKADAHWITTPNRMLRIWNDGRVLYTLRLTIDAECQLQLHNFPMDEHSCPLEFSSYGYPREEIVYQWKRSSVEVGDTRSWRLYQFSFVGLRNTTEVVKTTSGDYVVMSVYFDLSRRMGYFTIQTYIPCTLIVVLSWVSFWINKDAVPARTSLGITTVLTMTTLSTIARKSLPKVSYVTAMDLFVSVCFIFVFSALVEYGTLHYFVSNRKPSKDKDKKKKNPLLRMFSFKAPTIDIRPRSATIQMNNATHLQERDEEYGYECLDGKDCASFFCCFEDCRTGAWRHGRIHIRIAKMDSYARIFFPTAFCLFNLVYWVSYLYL

| Compound | Activity | potentiation of human GABA receptor-mediated Cl− current |
| --- | --- | --- |
| C[C@@H](O)[C@H](NC(=O)[C@@H](N)CC1CCCCC1)C(=O)N[C@@H](Cc1c[nH]c2ccccc12)C(=O)N[C@@H](CCC(N)=O)C(=O)N[C@H](C=O)CCC(=O)O [SEQ ID NO:2, (L-cyclohexyl-alanine)- TWQE] (H-[Cha]TWQE-aldehyde) | Positive allosteric modulator | selective potentiation |
| C[C@@H](O)[C@@H](C(=O)N[C@@H](Cc1c[nH]c2ccccc12)C(=O)N[C@@H](CCC(N)=O)C(=O)N[C@H](C=O)CCC(=O)O)N(C)C(=O)[C@@H](N)Cc1cncn1C [SEQ ID NO:3, (3-methyl-L-histidine)-(N-methyl-threonine)-WQE] (H-[His(π-Me)][NMeT]WQE-aldehyde) | Positive allosteric modulator | selective potentiation |
| C[C@@H](O)[C@@H](C(=O)N[C@H](Cc1c[nH]c2ccccc12)C(=O)N[C@@H](CCC(N)=O)C(=O)N[C@H](C=O)CCC(=O)O)N(C)C(=O)[C@@H](N)Cc1cncn1C [SEQ ID NO:4, (3-methyl-L-histidine)-(N-methyl-threonine)-(N-methyl-tryptophan)-QE] (H-[His(π-Me)][NMeT][dW]QE-aldehyde) | Positive allosteric modulator | selective potentiation |
| Arg—Phe—His—Ser (RFHS; printed: Arg—Phe—His—Ser) [SEQ ID NO:10] | Positive allosteric modulator | selective potentiation |
| Arg—Thr—Trp—Gly—Glu (RTWGE; printed: Arg—Thr—Trp—Gly—Glu) [SEQ ID NO:13] |  | selective potentiation |
| His—Ile—Ser—NH2 [SEQ ID NO:9] | Positive allosteric modulator | selective potentiation |
| His—Pro—Pro—Ala—Thr (HPPAT; printed: His—Pro—Pro—Ala—Thr) [SEQ ID NO:8] | Positive allosteric modulator | selective potentiation |
| His—Pro—Trp—Gln (HPWQ; printed: His—Pro—Trp—Gln) [SEQ ID NO:15] | Positive allosteric modulator | selective potentiation |
| His—Thr—Thr—Gly—Asp (HTTGD; printed: His—Thr—Thr—Gly—Asp) [SEQ ID NO:12] | Positive allosteric modulator | selective potentiation |
| His—Thr—Trp—Gln—Glu (HTWQE; printed: His—Thr—Trp—Gln—Glu) [SEQ ID NO:1] | Positive allosteric modulator | selective potentiation |
| His—Thr—Trp—Lys—Lys (HTWKK; printed: His—Thr—Trp—Lys—Lys) [SEQ ID NO:6] | Positive allosteric modulator | selective potentiation |
| His—Thr—Trp—Pro (HTWP; printed: His—Thr—Trp—Pro) [SEQ ID NO:14] | Positive allosteric modulator | selective potentiation |
| His—Thr—Trp—Tyr—Glu (HTWYE; printed: His—Thr—Trp—Tyr—Glu) [SEQ ID NO:7] | Positive allosteric modulator | selective potentiation |
| Thr—Glu—Ser—Lys—Gly—NH2 (TESKG-NH2) [SEQ ID NO:11] | Positive allosteric modulator | selective potentiation |
